The target of data set [1] is T1, ADAM33 (Homo sapiens, UniProt Q9BZ11).
T1 construct: made in house; host or cells: Drosophila melanogaster S2 cells
T1 sequence (Q9BZ11 204-409): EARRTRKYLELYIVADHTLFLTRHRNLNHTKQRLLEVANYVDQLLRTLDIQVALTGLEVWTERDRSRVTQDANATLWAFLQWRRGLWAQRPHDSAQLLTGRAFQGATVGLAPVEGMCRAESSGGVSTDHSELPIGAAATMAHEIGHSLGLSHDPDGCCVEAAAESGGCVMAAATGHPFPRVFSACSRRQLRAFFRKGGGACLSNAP
Nature of the data set: MCF 12-mer peptide proteolysis assay (HPLC). The format is biochemical. To be noted: for ADAM33 activity in the presence of inhibitor: 1 mM inhibitor. The procedure: A 12-mer peptide (i.e. Ac-LPPVAASSLNRD-NH2; SEQ ID NO: 48), derived from human mast-cell growth factor (accession number NP-038626) was synthesized as a substrate for ADAM33. Reactions were initiated by addition of 200 nM enzyme to appropriate amounts of substrate in assay buffer (25 mM HEPES, pH 7.5, 0.5 M NaCl, 0.1% n-octyl-β-D-glucoside), incubated at 22° C. for 2 h and subsequently quenched with 1% TFA. When inhibitors were evaluated, the enzyme and inhibitors were preincubated at 22° C. for 30 min prior to initiation of the assays. Substrate and products were separated by HPLC using a C-8 reverse phase column (Zobrax 3.5 μm, 4.6 mmD/5 cmL, Agilent, Palo Alto, Calif., 0.1% TFA acetonitrile/H2O). Elution was monitored at 214 nm, and peaks identified by mass spectroscopy. Initial rates of proteolysis were determined using reactions in which less than 10% of the substrate was consumed. kcat/Km values were calculated assuming the enzymes were 100% active.
Production of ADAM33 and mutants thereof were produced essentially as described in Example 1. Proteolytic assays and methods for determining catalytic rates are essentially as described in Examples 2 and 3.

For data set [2], the target named is T1, ADAM33. Nature of the data set: HPLC inhibition assay, ADAM33cat with KL-1 peptide substrate. In kind it is biochemical. To be noted: ADAM33cat 80 nM, KL-1 peptide 100 μM, 2 h RT. As to the method: The inhibition dissociation constants (Ki) for inhibitors were determined as follows: an HPLC assay was performed in the presence or absence of inhibitors for 2 h at RT using ADAM33cat (80 nM) and KL-1 peptide substrate (100 μM). For testing tissue inhibitor of metalloproteinases (TIMPs), ADAM33 and human TIMPs were pre-incubated for 1 h at RT. […] Initial velocities were calculated by dividing cleaved product over reaction time. The initial velocities were plotted as a function of inhibitor concentration. For tight binding inhibitors (IK682, TIMP-3), the apparent inhibitor dissociation constants (Ki app values) were calculated by fitting the curve to the following modified Morrison's equation: vi=vo{[(Eo−Io−Ki^app)^2+4 Ki^appEo]^1/2+(Eo−IoKI^app)}/2Eo where Ki^app=Ki(1+S/Km), vo is the uninhibited initial velocity, vi is the initial velocity in the presence of inhibitor at any given inhibitor concentration Io, and Eo is initial enzyme concentration. When the substrate concentration S<<Km, Ki^app is approximately equal to Ki.

Data set [3] has as its target T1, ADAM33. Nature of the data set: HPLC peptide substrate cleavage assay with ADAM33. To be noted: for cleavage site of peptide: identified by MALDI-TOF MS; for cleavage of peptide by ADAM33: peptide 50 μM, ADAM33 0.1–0.5 μM, 2 h RT. The format is biochemical. As to the method:
(§1) The peptide substrate (50 μM) was incubated with or without ADAM33 (0.1–0.5 μM) in assay buffer (20 mM HEPES, pH 7.5, 0.5 M NaCl, 0.2 mg/ml bovine serum albumin (BSA)) for 2 hours (h) at room temperature (RT) in the presence or absence of various inhibitors [5 mM 1, 10-phenanthroline, or a protease inhibitor cocktail (2 μg/ml leupeptin, 0.4 μM benzamidine, 10 μg/ml soybean trypsin inhibitor and 0.5 mM iodoacetamide)]. The reaction was stopped by adding 10% trifluoroacetic acid (TFA) to a final concentration of 1% and samples were analyzed on Agilent HPLC model 1100 with C8 column. Solvents were: A, 0.1% TFA in water; B, 0.09% TFA in acetonitrile. A linear gradient from 2 to 42% B was run over 7 min at 1.5 ml/min and the eluate was monitored at 214 nm. The percentage of peptide cleavage was calculated using the peak area of the cleaved products divided by the sum of the peak areas of both the products and the remaining substrate. The cleavage sites of the peptide were identified by matrix-assisted laser-desorption/ionization time-of-flight (MALDI-TOF) mass spectrometry.
(§2) Specificity constants of peptide substrates, APP and KL-1, were obtained by using the HPLC assay described above. In brief, ADAM33cat (80 nM) was incubated with peptide substrate (30–2000 μM) in assay buffer for 10–60 min at RT. Reactions were timed to allow less than 15% turnover of the substrate. The initial cleavage velocities of the peptides were obtained by plotting cleaved product versus reaction time. The specificity constants, kcat/Km, were determined based on best fit of the data with the Michaelis-Menten equation when substrate concentration S<<Km.

Substrate in data set [4]: CC(C)C[C@H](NC(=O)[C@H](CCCCN)NC(=O)[C@H](CCC(N)=O)NC(=O)[C@H](Cc1c[nH]cn1)NC(=O)[C@H](Cc1c[nH]cn1)NC(=O)[C@@H](NC(=O)[C@H](CCC(=O)O)NC(=O)[C@@H](N)Cc1ccc(O)cc1)C(C)C)C(=O)N[C@H](C(=O)N[C@@H](Cc1ccccc1)C(=O)O)C(C)C
Nature of the data set: HPLC peptide substrate cleavage assay with ADAM33. In kind it is biochemical, human. To be noted: other: ADAM33cat 80 nM, turnover <15%; pH 7.5. As to the method: as §1, §2

Substrate in data set [5]: CC(C)C[C@H](NC(=O)[C@H](CO)NC(=O)[C@H](CO)NC(=O)[C@H](C)NC(=O)[C@H](C)NC(=O)[C@@H](NC(=O)[C@@H]1CCCN1C(=O)[C@@H]1CCCN1)C(C)C)C(=O)N[C@@H](CCCNC(=N)N)C(=O)N[C@@H](CC(N)=O)C(=O)O
Nature of the data set: HPLC peptide substrate cleavage assay with ADAM33. In kind it is biochemical, human. To be noted: other: ADAM33cat 80 nM, turnover <15%; pH 7.5. As to the method: as §1, §2

Data set [6] in a line: Thermal denaturation monitored by circular dichroism (220 nm). The format is physicochemical. The procedure: The effect of CaCl2 on the stability of the ADAM33 N231Q catalytic domain as determined by thermal denaturation: The effect of the concentration of CaCl2 on the retention of the secondary structure of the ADAM33 N231 Q catalytic domain was monitored by circular dichroism (λ220 nm) as a function of temperature. A parallel study was performed replacing the CaCl2 with NaCl to control for the effect of the corresponding increase in ionic strength. The ADAM33 N231Q catalytic domain was purified as described above and then diluted to 0.2 mg/ml. The sample was then dialyzed against 25 mM Hepes, pH 7.5, 5% glycerol overnight. The temperature dependent protein denaturation was performed using a JASCO 810 spectropolarimeter under the following conditions: • Protein concentration: 0.2 mg/ml (based on a BioRad Protein Assay) • Cell length: 0.1 cm • Monitor wavelength: 220 nm • Temperature slope: 2° C./min • Measurement range: 20–80° C.
Background: Circular dichroism is the unequal absorption of left and right circularly polarised light.

Residue numbers refer to the chain shown, from its start. In names and notes the source's numbering stands.

With `c1cnc2c(c1)ccc1cccnc12` [1,10-phenanthroline], on ADAM33 [1], the “ADAM33 activity in the presence of inhibitor” value is “completely abolished”.

By Ki is commonly meant a measure of affinity in units of concentration, obtained from inhibition or displacement. Read a high Ki as lower affinity. As for `CNC(=O)[C@@H](NC(=O)[C@H](CC(C)C)[C@H](O)C(=O)NO)C(C)(C)C` [Marimastat, N4-[2,2-dimethyl-1(S)-[(methylamino)carbonyl]propyl]-N1,2(S)-dihydroxy-3(R)-(2-methylpropyl) butanediamide], the Ki at ADAM33 [2] came to 157 ± 38 nM.

Take “TRANCE: peptide substrate VGSQHIRAEK; SEQ ID NO: 44 (TRANCE Peptide)”: in the data set with ADAM33 [3], the “cleavage site of peptide” value is recorded as “H*I” and the “cleavage of peptide by ADAM33” value is recorded as “cleaved”.

Take `O=C(O)CN(CCN(CC(=O)O)CC(=O)O)CC(=O)O` [EDTA]: the “ADAM33 activity in the presence of inhibitor” value at ADAM33 [1] is recorded as “completely abolished”.

The Km is the substrate concentration at which the rate is half of its maximum. Consider “Ac-LPPVAASSLNRD-NH2 [MCF substrate peptide]”, for which the “cleavage site of MCF peptide by wild-type ADAM33” value at ADAM33 [1] is “between the residues corresponding to Ala-190 and Ser-191”. Further, the Km on ADAM33 [1] (200 nM enzyme, 10–500 μM substrate, room temperature) is > 500 µM.

On to `CC(C)CC(CC(=O)NO)C(=O)N[C@H](C(=O)N[C@@H](C)C(=O)NCCN)C(C)(C)C` (mixture of isomers) [Immunex compound 1, N-{DL-[2-(hydroxyamino-carbonyl)methyl]4-methylpentanoyl}-L-3-(tertbutyl)glycyl-L-alanine,2-aminoethylamide], for which, at ADAM33 [2], the Ki is 2850 ± 152 nM.

In the case of “insulin B chain: peptide substrate HLVEALYLVC; SEQ ID NO: 45 (insulin B chain peptide)”, in the data set with ADAM33 [3], the “cleavage site of peptide” value is recorded as “A*L” and the “cleavage of peptide by ADAM33” value is on record as “cleaved”.

B1: CAT domain: purified catalytic (protease) domain of human ADAM33 (protein)
chain: EARRTRKYLELYIVADHTLFLTRHRNLNHTKQRLLEVANYVDQLLRTLDIQVALTGLEVWTERDRSRVTQDANATLWAFLQWRRGLWAQRPHDSAQLLTGRAFQGATVGLAPVEGMCRAESSGGVSTDHSELPIGAAATMAHEIGHSLGLSHDPDGCCVEAAAESGGCVMAAATGHPFPRVFSACSRRQLRAFFRKGGGACLSNAPSGHHHHHH
Take B1: the catalytic efficiency with ADAM33 [1] (MCF peptide substrate, estimated) is 2.6±0.5)×10^2 M^−1 s^−1.

B2: ADAM33 (Homo sapiens) (protein)
chain: T1 sequence (Q9BZ11 204-409)
notes: made in house; host or cells: Drosophila melanogaster S2 cells
The kcat is the number of substrate molecules converted per active site and unit of time at saturation. As for B2, in data set [4], the Km came out at 1000 ± 100 µM, the kcat amounted to 0.2 ± 0.1 s⁻¹ and the kcat/Km result is “(1.6±0.3)×10^2 M^−1 s^−1”. In addition, in data set [5], the Km amounted to 3000 ± 100 µM, the kcat was 0.7 ± 0.1 s⁻¹ and the kcat/Km entry is “(2.6±0.5)×10^2 M^−1 s^−1”.

B3: ADAM33 N231Q: modified ADAM33 catalytic domain N231Q, SEQ ID NO: 8 with C-terminal Ser-Gly His6 Tag (protein)
chain: T1 sequence (Q9BZ11 204-409) with N28Q
modifications: C-terminal Ser-Gly His6 tag; homo sapiens
B3: the “Denaturation Temp.” value in data set [6] (CaCl2 0 mM) turned out to be 43.5 °C; in data set [6] (CaCl2 0.003 mM) it was 50.6 °C; in data set [6] (CaCl2 0.03 mM) it was 52.9 °C; in data set [6] (CaCl2 0.3 mM), 53.9 °C; in data set [6] (CaCl2 0.5 mM), 56.9 °C; in data set [6] (CaCl2 1.0 mM), 57.9 °C. Also, the “Denaturation Temp.” value in data set [6] (CaCl2 2.5 mM) is 60.6 °C; in data set [6] (CaCl2 5.0 mM), 61.5 °C; in data set [6] (CaCl2 10.0 mM) it was 63.3 °C; in data set [6] (CaCl2 25.0 mM) it was 64.6 °C; in data set [6] (CaCl2 50.0 mM), 65.6 °C; in data set [6] (CaCl2 100.0 mM), 65.2 °C. The “ΔDenaturation Temp.” value is 0.0 °C in data set [6] (CaCl2 0 mM); 7.1 °C in data set [6] (CaCl2 0.003 mM); 9.4 °C in data set [6] (CaCl2 0.03 mM); 10.4 °C in data set [6] (CaCl2 0.3 mM); 13.4 °C in data set [6] (CaCl2 0.5 mM); 14.4 °C in data set [6] (CaCl2 1.0 mM). Further, the “ΔDenaturation Temp.” value in data set [6] (CaCl2 2.5 mM) turned out to be 17.1 °C; in data set [6] (CaCl2 5.0 mM) it was 18.0 °C; in data set [6] (CaCl2 10.0 mM), 19.8 °C; in data set [6] (CaCl2 25.0 mM), 21.1 °C; in data set [6] (CaCl2 50.0 mM) it was 22.1 °C; in data set [6] (CaCl2 100.0 mM), 21.7 °C.

The values are drawn from patent US7208311B2, “Catalytic domain of ADAM33 and methods of use thereof” (Schering Corporation, priority 2002, dated 2007).
